One assay has as its target Naja mossambica venom. Nature of the assay: biolayer interferometry (wavelength shift, AUC of association curve). The conditions noted are these: 120-s association phase; n=3; parent: est. 29; read off a plot. In general terms: BLI is a label-free optical method that tracks binding on a fibre tip over time.
Another assay concerns the target Naja siamensis venom. The assay is described as above. The settings on record: 120-s association phase; n=3; parent: est. 23; read off a plot.

Take “Homininae α-1 nAChR orthosteric site (loop C) mimotope, native S191A”: the response with Naja mossambica venom amounted to 35 AUC; in the assay with Naja siamensis venom it was 28 AUC.
“Homininae α-1 nAChR orthosteric site (loop C) mimotope, native S187W; S191A”: the response with Naja mossambica venom was 38 AUC; with Naja siamensis venom, 28 AUC.
On to “Homininae α-1 nAChR orthosteric site (loop C) mimotope, native S187W”, for which the response in the assay with Naja mossambica venom is 20 AUC; with Naja siamensis venom, 16 AUC.
Consider “Homininae α-1 nAChR orthosteric site (loop C) mimotope, native S187W; T189F”, for which the response in the assay with Naja mossambica venom stood at 88 AUC; in the assay with Naja siamensis venom, 50 AUC.
With “Homininae α-1 nAChR orthosteric site (loop C) mimotope, native T189F; S191A”, the results for the response with Naja mossambica venom and with Naja siamensis venom were 47 AUC and 31 AUC, respectively.
On the same counts, the results for “Homininae α-1 nAChR orthosteric site (loop C) mimotope, native S187W; T189F; S191A” are 76 AUC and 53 AUC.
Taken in the same sequence, the figures for “Homininae α-1 nAChR orthosteric site (loop C) mimotope, native T189F” were 46 AUC and 32 AUC.

(Values after paper PMC8613972.)
